± gives the uncertainty stated by the source.
B1: SAM and SH3 domain-containing protein 1, residues 630 to 700; numbered along this chain, O94885 (parent)
chain: GRPPQPKSVEDLLDRINLKEHMPTFLFNGYEDLDTFKLLEEEDLDELNIRDPEHRAVLLTAVELLQEYDSN

Variants of: B1
Test: abundance fitness (aPCA) (normalised: wild type 0, dead -1); higher = more abundant; growth selection in yeast, the domain comes from the species named
Settings: Homo sapiens

Row | Variant | abundance fitness
1 | R50Q | 0.039 ± 0.048
2 | R50D | -0.057 ± 0.051
3 | R50K | 0.032 ± 0.058
4 | P6F | 0.085 ± 0.046
5 | P6G | -0.655 ± 0.061
6 | P6V | -0.168 ± 0.044
7 | P6D | -0.158 ± 0.058
8 | P6I | -0.151 ± 0.056
9 | L44N | -0.822 ± 0.081
10 | L44Y | -0.755 ± 0.085
11 | L44R | -0.904 ± 0.065
12 | L44W | -0.773 ± 0.085
13 | L44C | -0.598 ± 0.075
14 | L44K | -0.746 ± 0.076
15 | L39W | -1.19 ± 0.14
16 | L39Y | -0.929 ± 0.078
17 | L39T | -0.79 ± 0.059
18 | L39D | -0.799 ± 0.081
19 | L39A | -0.881 ± 0.068
20 | E41R | -0.499 ± 0.054
21 | E41C | -0.483 ± 0.067
22 | E41H | -0.7 ± 0.076
23 | E41N | -0.408 ± 0.061
24 | E63V | -0.831 ± 0.059

Row | Variant | abundance fitness
25 | E63Q | -0.018 ± 0.046
26 | E63R | 0.133 ± 0.035
27 | E63A | 0.034 ± 0.035
28 | P52V | -0.5 ± 0.05
29 | P52G | -0.71 ± 0.057
30 | P52F | -1.04 ± 0.11
31 | P52Y | -1.02 ± 0.097
32 | P52E | -0.317 ± 0.059
33 | P52W | -0.782 ± 0.071
34 | I16D | -0.703 ± 0.15
35 | I16M | -0.325 ± 0.062
36 | I16C | -0.067 ± 0.063
37 | I16K | -0.735 ± 0.097
38 | I16Y | -0.009 ± 0.058
39 | I16W | -0.611 ± 0.088
40 | I16L | 0.128 ± 0.038
41 | L64I | -0.393 ± 0.054
42 | L64P | -0.595 ± 0.057
43 | L64R | 0.199 ± 0.035
44 | L64V | -0.234 ± 0.039
45 | L64F | -0.117 ± 0.043
46 | L64D | 0.33 ± 0.041
47 | S8H | -0.899 ± 0.09
48 | S8Y | -0.899 ± 0.085

Row | Variant | abundance fitness
49 | S8A | -0.889 ± 0.093
50 | S8G | -0.536 ± 0.076
51 | S8W | -1.35 ± 0.24
52 | L38G | -0.061 ± 0.038
53 | L38Y | -0.117 ± 0.056
54 | L38D | -0.175 ± 0.053
55 | L38M | -0.011 ± 0.05
56 | L38A | -0.063 ± 0.04
57 | G29W | -0.937 ± 0.11
58 | G29P | -0.967 ± 0.08
59 | G29S | -0.834 ± 0.059
60 | G29K | -0.925 ± 0.11
61 | F25Q | -0.778 ± 0.078
62 | F25E | -0.623 ± 0.094
63 | F25L | -0.266 ± 0.041
64 | F25A | -0.837 ± 0.072
65 | F25P | -0.925 ± 0.084
66 | F25S | -0.706 ± 0.056
67 | F25D | -0.672 ± 0.093
68 | F25H | -0.924 ± 0.11
69 | H21T | -0.685 ± 0.061
70 | H21D | -0.889 ± 0.097
71 | D45L | -0.113 ± 0.033
72 | D45E | -0.276 ± 0.06

Row | Variant | abundance fitness
73 | D45C | -0.416 ± 0.053
74 | D45R | -0.415 ± 0.043
75 | D32C | -0.292 ± 0.055
76 | D32R | -0.268 ± 0.038
77 | D32Y | -0.776 ± 0.07
78 | D32Q | -0.382 ± 0.047
79 | D32L | -0.767 ± 0.046
80 | D32K | -0.197 ± 0.05
81 | L47H | -0.788 ± 0.062
82 | L47Y | -0.783 ± 0.065
83 | L47V | -0.781 ± 0.051
84 | L47M | 0.017 ± 0.048
85 | L47W | -0.959 ± 0.092
86 | L47P | -0.799 ± 0.066
87 | K37G | -0.669 ± 0.073
88 | K37D | -0.791 ± 0.1
89 | M22W | 0.281 ± 0.041
90 | M22T | 0.009 ± 0.04
91 | M22L | 0.377 ± 0.032
92 | M22K | -0.252 ± 0.055
93 | L58R | -0.651 ± 0.056
94 | L58A | -0.531 ± 0.06
95 | L58M | -0.717 ± 0.078
96 | L58P | -0.501 ± 0.067

Row | Variant | abundance fitness
97 | D43F | -1.05 ± 0.085
98 | D43N | -0.058 ± 0.044
99 | D43R | -0.385 ± 0.043
100 | D43C | -0.713 ± 0.079
101 | D43Q | -0.142 ± 0.041
102 | D43E | -0.503 ± 0.067
103 | D43I | -0.584 ± 0.061
104 | I49A | -0.98 ± 0.072
105 | I49Q | -0.92 ± 0.083
106 | I49R | -0.831 ± 0.053
107 | I49E | -0.79 ± 0.082
108 | I49L | -0.868 ± 0.052
109 | I49Y | -0.869 ± 0.07
110 | I49K | -0.863 ± 0.08
111 | K7Q | -0.119 ± 0.067
112 | K7N | -0.142 ± 0.041
113 | T35N | -0.159 ± 0.049
114 | T35W | -0.973 ± 0.12
115 | T35H | 0.022 ± 0.047
116 | T35F | -0.911 ± 0.099
117 | T35S | 0.104 ± 0.035
118 | T35E | -0.211 ± 0.067
119 | T35M | -0.312 ± 0.059
120 | F36Y | -0.878 ± 0.095

Row | Variant | abundance fitness
121 | F36N | -0.719 ± 0.091
122 | F36A | -0.717 ± 0.067
123 | F36P | -0.9 ± 0.092
124 | A56L | -0.334 ± 0.035
125 | A56P | -0.772 ± 0.053
126 | A56E | 0.085 ± 0.05
127 | Q66F | -0.694 ± 0.061
128 | E40Y | -0.829 ± 0.069
129 | E40C | 0.186 ± 0.042
130 | E40D | 0.011 ± 0.057
131 | E40I | -0.431 ± 0.055
132 | E40V | -0.088 ± 0.047
133 | E40N | 0.196 ± 0.041
134 | T24Y | -0.98 ± 0.097
135 | T24M | -0.379 ± 0.056
136 | T24R | -0.367 ± 0.04
137 | T24G | -0.713 ± 0.056
138 | T24W | -0.892 ± 0.095
139 | V57Q | 0.251 ± 0.041
140 | V57W | -0.397 ± 0.061
141 | V57F | -0.747 ± 0.077
142 | V57P | -0.484 ± 0.055
143 | V57E | 0.196 ± 0.049
144 | T60A | 0.242 ± 0.042

Row | Variant | abundance fitness
145 | T60Q | 0.266 ± 0.043
146 | H54I | -0.458 ± 0.054
147 | H54R | -0.823 ± 0.053
148 | H54G | -0.832 ± 0.055
149 | H54N | -0.635 ± 0.064
150 | E31D | 0.129 ± 0.042
151 | E31S | 0.196 ± 0.032
152 | E31V | -0.003 ± 0.035
153 | E31L | -0.37 ± 0.036
154 | P4F | 0.2 ± 0.05
155 | P4T | 0.101 ± 0.046
156 | P4E | 0.237 ± 0.067
157 | P4W | -0.008 ± 0.065
158 | P4H | -0.01 ± 0.054
159 | P23A | 0.113 ± 0.043
160 | P23F | -0.434 ± 0.057
161 | P23W | -0.103 ± 0.061
162 | P23D | 0.199 ± 0.047
163 | P23G | 0.039 ± 0.043
164 | D69P | -0.081 ± 0.041
165 | D69T | -0.358 ± 0.045
166 | D69V | -0.971 ± 0.086
167 | D69H | -0.327 ± 0.056

From the Human Domainome abundance scans (Beltran et al. 2025)
